In patent publication US20260232732A1 (FUNDACI INSTITUT DE RECERCA CONTRA LA LEUC MIA JOSEP …, published 2026):
Where no end group is shown, it is not given here. The star is where a group is joined. Biotin = O=C1N[C@H]2[C@H](CS[C@H]2CCCCC(=O)*)N1

What was measured:
[1] = molecular target: T1, biotin-peptide TSSMEDYVNF (human); experiment: ELISA biotin-peptide; scFv 2.5 ug/mL; repI
T1 peptide: Biotin-TSSMEDYVNF
Description: (§1) The peptides were synthesized naked or with a N-terminal Biotin modification with a purity of >98%. All four scFvs were verified by ELISA that can be detected with anti-His antibodies. ELISA was performed for scFv-peptide binding validation. Briefly, naked peptides were coated (50 μg/mL) in 0.58M carbonate-bicarbonate buffer pH9.5, 100 μL/well, 4° C. O/N. Then after blocking (3% BSA-PBS, 300 μL/well 37° C. 1.5 h) and washing (PBS+Tween-20 0.05% v/v (0.05% PBST), wells were incubated with each purified scFv antibody at concentration of 1 μg/mL in PBS at 37° C. 1 h. After washing (0.05% PBST), wells were incubated with secondary antibodies (goat anti-His IgG-HRP) in PBS, 37° C., 30 min. After washing, and incubation with TMB substrate, reactions were stopped with 2M HCl and reading was quantified at OD450.
(§2) ELISA with biotin-conjugated peptides (5 μg/mL) was performed very similar to described above with minor modifications.
(§3) A full curve ELISA was performed for each positive scFv/biotin-peptide pair in order to confirm previous results. Tables 15-17 show ELISA results of the dose-dependent full curve for each positive peptide with scFv “CCR9_HUM”, “Comp-2” and “Comp-3”, respectively.

[2] = molecular target: T2, biotin-peptide SSMEDYVNFN (human); experiment: ELISA biotin-peptide; scFv 2.5 ug/mL; repI
T2 peptide: Biotin-SSMEDYVNFN
Description: as §1, §2, §3

[3] = molecular target: T3, biotin-peptide SMEDYVNFNF (human); experiment: ELISA biotin-peptide; scFv 2.5 ug/mL; repI
T3 peptide: Biotin-SMEDYVNFNF
Description: as §1, §2, §3

[4] = molecular target: T1, biotin-peptide TSSMEDYVNF; experiment: ELISA biotin-peptide; scFv 0.625 ug/mL; repI
Description: as §1, §2, §3

[5] = molecular target: T2, biotin-peptide SSMEDYVNFN; experiment: ELISA biotin-peptide; scFv 0.625 ug/mL; repI
Description: as §1, §2, §3

[6] = molecular target: T3, biotin-peptide SMEDYVNFNF; experiment: ELISA biotin-peptide; scFv 0.625 ug/mL; repI
Description: as §1, §2, §3

[7] = molecular target: T4, biotin-peptide MEDYVNFNFT (human); experiment: ELISA biotin-peptide; scFv 0.625 ug/mL; repI
T4 peptide: Biotin-MEDYVNFNFT
Description: as §1, §2, §3

[8] = molecular target: T5, Peptide 3-BSA (SSMEDYVNFN-C conjugated to BSA) (human); experiment: ELISA; Ab 0.5 ug/mL; repI
T5 peptide: SSMEDYVNFNC(BSA)
Description: (§4) In brief, plates with each non-conjugated peptide (50 μg/mL) or BSA-conjugated peptide (5 μg/mL) were coated in 0.58M carbonate-bicarbonate buffer pH9.5, 100 μL/well, at 4° C. […] After washing, wells were incubated with the 3, 3′,5,5′-Tetramethylbenzidine (TMB) HRP substrate and reactions were stopped with 2M HCl and OD450 was recorded.

[9] = molecular target: T6, Peptide 4-BSA (SMEDYVNFNF-C conjugated to BSA) (human); experiment: ELISA; Ab 0.5 ug/mL; repI
T6 peptide: SMEDYVNFNFC(BSA)
Description: as §4

[10] = molecular target: T7, Peptide 1, non-conjugated (MADDYGSEST-C) (human); experiment: ELISA; Ab 0.5 ug/mL; repI
T7 construct: With the extra C-terminal Cys
T7 peptide: MADDYGSESTC
Description: as §4

[11] = molecular target: T8, Peptide 2, non-conjugated (GSESTSSMED-C) (human); experiment: ELISA; Ab 0.5 ug/mL; repI
T8 construct: With the extra C-terminal Cys
T8 peptide: GSESTSSMEDC
Description: as §4

[12] = molecular target: T9, Peptide 3, non-conjugated (SSMEDYVNFN-C) (human); experiment: ELISA; Ab 0.5 ug/mL; repI
T9 construct: With the extra C-terminal Cys
T9 peptide: SSMEDYVNFNC
Description: as §4

[13] = molecular target: T10, Peptide 4, non-conjugated (SMEDYVNFNF-C) (human); experiment: ELISA; Ab 0.5 ug/mL; repI
T10 construct: With the extra C-terminal Cys
T10 peptide: SMEDYVNFNFC
Description: as §4

[14] = molecular target: T11, BSA (negative control coating) (bovine, UniProt P02769 25-607); experiment: ELISA; Ab 0.5 ug/mL; repI
T11 construct: also called Negative control BSA
Description: as §4

[15] = molecular target: T12, antigen peptide-BSA (immunisation peptide #1 MADDYGSESTSSMEDYVNFNF-C conjugated to BSA) (human, extra C-terminal Cys conjugated to BSA); experiment: ELISA; Ab 0.5 ug/mL; repI
T12 construct: also called Positive control antigen peptide-BSA; MADDY peptide
T12 peptide: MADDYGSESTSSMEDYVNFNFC
Description: as §4

[16] = molecular target: T13, Peptide 1-BSA (MADDYGSEST-C conjugated to BSA) (human); experiment: ELISA; Ab 0.5 ug/mL; repI
T13 peptide: MADDYGSESTC(BSA)
Description: as §4

[17] = molecular target: T14, Peptide 2-BSA (GSESTSSMED-C conjugated to BSA) (human); experiment: ELISA; Ab 0.5 ug/mL; repI
T14 peptide: GSESTSSMEDC(BSA)
Description: as §4

[18] = molecular target: T5, Peptide 3-BSA (SSMEDYVNFN-C conjugated …); experiment: ELISA; Ab 0.125 ug/mL; repI
Description: as §4

[19] = molecular target: T6, Peptide 4-BSA (SMEDYVNFNF-C conjugated …); experiment: ELISA; Ab 0.125 ug/mL; repI
Description: as §4

[20] = molecular target: T7, Peptide 1, non-conjugated (MADDYGSEST-C); experiment: ELISA; Ab 0.125 ug/mL; repI
Description: as §4

[21] = molecular target: T8, Peptide 2, non-conjugated (GSESTSSMED-C); experiment: ELISA; Ab 0.125 ug/mL; repI
Description: as §4

[22] = molecular target: T9, Peptide 3, non-conjugated (SSMEDYVNFN-C); experiment: ELISA; Ab 0.125 ug/mL; repI
Description: as §4

[23] = molecular target: T11, BSA (negative control coating); experiment: ELISA; Ab 0.125 ug/mL; repI
Description: as §4

[24] = molecular target: T13, Peptide 1-BSA (MADDYGSEST-C conjugated …); experiment: ELISA; Ab 0.125 ug/mL; repI
Description: as §4

[25] = molecular target: T7, Peptide 1, non-conjugated (MADDYGSEST-C); experiment: ELISA, non-conjugated peptide coated
Description: as §4

[26] = molecular target: T8, Peptide 2, non-conjugated (GSESTSSMED-C); experiment: ELISA, non-conjugated peptide coated
Description: as §4

T11 sequence (P02769 25-607 limits assumed): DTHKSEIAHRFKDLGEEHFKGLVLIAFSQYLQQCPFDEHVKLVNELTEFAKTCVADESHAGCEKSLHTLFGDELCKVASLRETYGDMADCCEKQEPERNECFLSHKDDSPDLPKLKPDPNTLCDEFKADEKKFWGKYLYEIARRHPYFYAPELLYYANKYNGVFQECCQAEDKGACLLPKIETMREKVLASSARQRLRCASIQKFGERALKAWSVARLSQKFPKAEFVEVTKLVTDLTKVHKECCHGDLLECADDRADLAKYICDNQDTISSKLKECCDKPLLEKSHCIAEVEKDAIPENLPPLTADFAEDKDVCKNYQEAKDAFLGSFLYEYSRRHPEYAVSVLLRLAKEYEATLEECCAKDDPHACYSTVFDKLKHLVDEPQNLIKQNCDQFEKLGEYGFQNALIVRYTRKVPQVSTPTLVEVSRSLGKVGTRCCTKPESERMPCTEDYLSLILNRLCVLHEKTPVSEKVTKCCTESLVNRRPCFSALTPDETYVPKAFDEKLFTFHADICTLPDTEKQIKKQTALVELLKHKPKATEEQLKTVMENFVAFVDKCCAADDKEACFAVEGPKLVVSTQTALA

B1: CCR9_HUM2 scFv (humanized anti-CCR9 scFv, SEQ ID NO: 17 with C-terminal 6xHis tag) (scFv)
scFv: QVQLVQSGAEVKKPGASVKVSCTASGYSFTDYIIYWVKQAHGQSLEWMGYIDPNNYNTRYSQKFQGKVTITVDKSSTSAYMELNSLTSDDTAVYYCARDVYWGQGTTVTVSSGGGGSGGGGSGGGGSGGGGSDVVMTQTPLSLSVTPGQPASISCRSSQSLVHSNGKTYLQWYLQKPGQSPKLLIYKVSNRFSGVPDRFSGSGSGTDFTLKISRVEAEDVGVYFCAQSTHVWTFGGGTKVEIKRAHHHHHH
Work on B1 yielded an OD450 [1] of 1.42 OD, an OD450 [2] of 1.81 OD and an OD450 [3] of 1.76 OD. It also gave an OD450 [4] of 0.78 OD, an OD450 [5] of 1.73 OD and an OD450 [6] of 1.71 OD. It also gave an OD450 [7] of 1.53 OD.

B2: anti-CCR9 antibody clone 115 (murine, from hybridoma #115) (antibody, V domains shown)
VH: QVQLKQSGPELVKPGTSVRVSCTASGYSFTDYIIYWVKQSHGRSLEWIGYIDPNNYNTRYSQKFKGKATLTVDKSSTSAFMHLNSLTSDDSAVYYCARDVYWGQGTTLTVSS
VL: DVVMTQTPLSLTVSLGDQASISCRSSQSLVHSNGKTYLQWYLQKPGQSPKLLIYKVSNRFSGVPDRFSGSGSGTDFTLKISRVEAEDLGVYFCAQSTHVWTFGGGTKLEIKR
notes: Mouse IgG1
For B2, the OD450 [8] was 2.03 OD, the OD450 [9] was 2.67 OD and the OD450 [10] was 0.01 OD. The OD450 [11] was 0.02 OD, the OD450 [12] was 1.94 OD and the OD450 [13] was 2.29 OD. It also gave an OD450 [14] of 0.02 OD, an OD450 [15] of 2.44 OD and an OD450 [16] of 0.03 OD. It also gave an OD450 [17] of 0.02 OD, an OD450 [18] of 1.97 OD and an OD450 [19] of 2.23 OD. It also gave an OD450 [20] of 0.01 OD, an OD450 [21] of 0.01 OD and an OD450 [22] of 1.77 OD. For the same binder, the OD450 [23] was 0.01 OD, the OD450 [24] was 0.02 OD and the binding result [25] was “no binding (tested: 1 ug/mL)”. B2: no binding (tested: 1 ug/mL) [26].
